Reference: patent US20110086767A1, “MUTANTS OF GLYCOSIDE HYDROLASES AND USES THEREOF FOR SYNTHESIZING COMPLEX OLIGOSACCHARIDES AND DISACCHARIDE INTERMEDIATES” (Institut Pasteur, priority 2008, published 2011)

How the values were obtained:
Assay type in all cases: biochemical
[1] = Product profile with 146 mM sucrose alone (HPAEC); conditions: t=24 h
Procedure: Comparison of products synthesized by wild-type and AS variants. Reactions were performed in the presence of 146 mM sucrose alone or supplemented with 146 mM acceptor. The purified wild-type or mutated GST/AS were employed at 0.5 U/mL. The reactions were stopped by heating at 95° C. for 5 min. The final mixture was centrifuged at 18 000 g for 10 min, filtered on 0.22 μm membrane and analyzed by HPLC, as previously described.
Soluble and insoluble oligosaccharides produced during the reaction were identified by HPAEC using a Dionex Carbo-Pack PA100 column at 30° C. Before analysis, the insoluble fraction was solubilized in KOH at a final total sugar concentration of 10 g/kg. Mobile phase (150 mM NaOH) was set at 1 mL/min flow rate with a sodium acetate gradient (going from 6 to 500 mM within 120 min). Detection was performed using a Dionex ED40 module with a gold working electrode and an Ag/AgCl pH reference. Note that α-D-GlcpNAc-OAll (acceptor) and its derivatives are not oxidable products and thus are not detectable by HPAEC. Sucrose, glucose, fructose, α-D-GlcpNAc-OAll (acceptor) and its derivatives (glucosylation products) were quantified by HPLC, as previously described

[2] = Kinetics of F290K and ASNPwt towards sucrose
Procedure: Enzyme assays were carried out in a total volume of 2 mL containing pure enzyme (0.115 mg and 0.106 mg when using ASNPwt and F290K, respectively). Catalytic efficiency (Eff=kcat/KM) of ASNPwt and F290K variant was determined with both sucrose (D=Donor) and α-D-GlcpNAc-OAll (A=Acceptor) as variable substrates. […] For the determination of the catalytic efficiency for A, D was held constant at 250 mM and A was varied between 0 and 250 mM. Experiments were performed until A and D solubility limits were reached. For each experiment, the reaction velocity corresponding to the acceptor glucosylation was determined by the formation of α-D-Glcp-(1→4)-α-D-GlcpNAc-OAll (called Vi(Dp2)), corresponding to the kinetics of the reaction of interest.
(§1) Initial velocities were fitted to the Michaelis-Menten equation using Sigma-Plot. As saturation was not achieved with the mutant, efficiency was calculated by linear regression analysis of the velocity versus substrate concentration plot. Aliquots (200 μL) were removed between 0 and 60 min (at which time product formation was still linear with respect to time), heated at 95° C. for 5 min and centrifuged at 18 000 g for 5 min. The final mixtures were filtered on a 0.22 um membrane and analyzed using HPLC material previously described. […]

[3] = Kinetics of F290K and ASNPwt in the presence of acceptor α-D-GlcpNAc-OAll
Procedure: Enzyme assays were carried out in a total volume of 2 mL containing pure enzyme (0.115 mg and 0.106 mg when using ASNPwt and F290K, respectively). Catalytic efficiency (Eff=kcat/KM) of ASNPwt and F290K variant was determined with both sucrose (D=Donor) and α-D-GlcpNAc-OAll (A=Acceptor) as variable substrates. For the determination of the catalytic efficiency for D, A was held constant at 250 mM and D was varied between 0 and 600 mM. For the determination of the catalytic efficiency for A, D was held constant at 250 mM and A was varied between 0 and 250 mM. Experiments were performed until A and D solubility limits were reached. For each experiment, the reaction velocity corresponding to the acceptor glucosylation was determined by the formation of α-D-Glcp-(1→4)-α-D-GlcpNAc-OAll (called Vi(Dp2)), corresponding to the kinetics of the reaction of interest.
as §1

[4] = HPLC screening of double-mutant libraries for variants able to glucosylate D-GlcpNAc; conditions: α-D-Glcp-(1→4)-α-D-GlcpNAc (ED) from sucrose and D-GlcpNAc, microplate format

B1: F290K: single mutant F290K of N. polysaccharea amylosucrase 1G5A (protein)
chain: SPNSQYLKTRILDIYTPEQRAGIEKSEDWRQFSRRMDTHFPKLMNELDSVYGNNEALLPMLEMLLAQAWQSYSQRNSSLKDIDIARENNPDWILSNKQVGGVCYVDLFAGDLKGLKDKIPYFQELGLTYLHLMPLFKCPEGKSDGGYAVSSYRDVNPALGTIGDLREVIAALHEAGISAVVDFIFNHTSNEHEWAQRCAAGDPLFDNFYYIFPDRRMPDQYDRTLREIFPDQHPGGFSQLEDGRWVWTTFNSFQWDLNYSNPWVFRAMAGEMLFLANLGVDILRMDAVAKIWKQMGTSCENLPQAHALIRAFNAVMRIAAPAVFFKSEAIVHPDQVVQYIGQDECQIGYNPLQMALLWNTLATREVNLLHQALTYRHNLPEHTAWVNYVRSHDDIGWTFADEDAAYLGISGYDHRQFLNRFFVNRFDGSFARGVPFQYNPSTGDCRVSGTAAALVGLAQDDPHAVDRIKLLYSIALSTGGLPLIYLGDEVGTLNDDDWSQDSNKSDDSRWAHRPRYNEALYAQRNDPSTAAGQIYQDLRHMIAVRQSNPRFDGGRLVTFNTNNKHIIGYIRNNALLAFGNFSEYPQTVTAHTLQAMPFKAHDLIGGKTVSLNQDLTLQPYQVMWLEIA
length of maltooligosaccharides synthesized in the absence of acceptor [1]: ≤ 20 DP
decrease of kcat/Km in the presence of sucrose alone ([2]; sucrose alone, compared with ASNPwt, linear regression): 40 fold
saturation with sucrose ([2]; sucrose varied between 0 and 600 mM): could not be saturated
increase of the efficiency of the mutant compared to ASNPwt [3]: 130 fold
Glusosylation Yield to synthesize ED ([4]; listed as DM4_P2_D12): 41%
Glusosylation Yield to synthesize ED ([4]; listed as DM4_P2_H4): 42%
